These results are taken from US20130040837, “APTAMER CELL COMPOSITIONS” (BRIGHAM AND WOMEN'S HOSPITAL, INC., published 2013).

The target in data set [1] is T1, PDGF-BB (platelet-derived growth factor) (UniProt P01127 P01127:82-190). The data set can be described thus: fluorescence quenching by flow cytometry on beads and MSCs, 10 nM PDGF; detection range several hundred pM to low nM on cells in PBS; best in PBS, then PBS with 0.9 mM CaCl2 and 0.5 mM MgCl2, then medium. To be noted: chain copies: 2 (inferred); label: 5'-FAM; complementary strand 5'-biotin, 3'-dabcyl. As for the experimental part:
FIGS. 11C-11D are bar graphs depicting the performance of sensors 1 and 2 immobilized on streptavidin beads for detection of PDGF in PBS (11C) and PBS with 0.9 mM CaCl₂ and 0.5 mM MgCl₂ (11D) were studied by flow cytometry. Upon adding PDGF (10 nM), the FAM green signal is quenched. Sensor 2 functions better than sensor 1 in PBS with and without Ca/Mg.
A PDGF aptamer sensor was synthesized with FAM at the 5′ end of the aptamer and a quencher, dabcyl, at the 3′ end of the complementary strand, with a biotin molecule attached at the other end (FIG. 11A). Upon binding to the target PDGF, the aptamer undergoes a conformational change which brings FAM and dabcyl closer to each other and the fluorescence of FAM is quenched. One base pair C-G of the aptamer sensor was eliminated by changing a C base to A base (FIG. 11B). Therefore, sensor 2 has less nonspecific folding and better performance in the presence of divalent metal ions than sensor 1. Sensor 1 and 2 were immobilized on streptavidin beads, and their performances in PBS (FIG. 11C) and PBS with Ca/Mg (FIG. 11D) were studied by flow cytometry and microscopy (FIGS. 12A-12B). Upon adding PDGF (10 nM), the FAM green signal was quenched. Sensor 2 functioned better than sensor 1 in PBS with and without Ca/Mg.

For data set [2], the target named is T2, L-selectin (UniProt P14151 P14151:39-332).
T2 sequence: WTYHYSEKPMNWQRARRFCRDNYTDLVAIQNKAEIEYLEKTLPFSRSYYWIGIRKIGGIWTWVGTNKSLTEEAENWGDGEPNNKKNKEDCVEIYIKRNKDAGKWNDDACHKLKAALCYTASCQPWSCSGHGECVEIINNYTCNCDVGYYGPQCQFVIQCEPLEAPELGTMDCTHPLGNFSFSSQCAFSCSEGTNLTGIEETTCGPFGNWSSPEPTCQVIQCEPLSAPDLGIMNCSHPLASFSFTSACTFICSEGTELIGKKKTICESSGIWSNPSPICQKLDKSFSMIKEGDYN
The data set is described as follows: static adhesion normalised to L-Aptamer-MSC; PBS-MSC background 6.4±1.78. To be noted: tags: coated on surface; label: 3'-biotin. As for the experimental part: After we confirmed the successful conjugation and the availability of aptamers on the MSC surface, we investigated the interactions between L-Aptamer-MSCs and L-selectin coated surfaces under both static and flow conditions. For the static adhesion assay, aptamer modified and unmodified MSCs were incubated with L-selectin coated surfaces for 10 minutes, and unbound cells were then removed through rinsing.

A further data set concerns the target P-selectin (UniProt P16109 P16109:42-771). The data set can be described thus: specificity control, static adhesion normalised to L-Aptamer-MSC on L-selectin. To be noted: tags: P-selectin-Fc, coated on surface; chain copies: 2; label: 5'-biotin.
Data set [3] addresses T1, PDGF-BB (platelet-derived growth factor). The data set is described as follows: Cy3 quenched and Cy5 enhanced with 10 nM PDGF; solution in PBS and on MSCs in PBS, PBS with Ca/Mg and medium. The note with it: chain copies: 2 (inferred); label: 5'-Cy5; complementary strand 5'-biotin, internal Cy3.
The target of data set [4] is T2, L-selectin. The data set can be described thus: specificity control, P-Aptamer-MSC on L-selectin. The note with it: tags: coated on surface; label: 5'-biotin.

T1 sequence (P01127 82-190, one chain of several): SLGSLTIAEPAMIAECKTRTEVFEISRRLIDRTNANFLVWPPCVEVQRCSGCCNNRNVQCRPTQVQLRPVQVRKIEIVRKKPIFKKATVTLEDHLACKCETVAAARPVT
Sequence of P-selectin (P16109 42-771, one chain of several): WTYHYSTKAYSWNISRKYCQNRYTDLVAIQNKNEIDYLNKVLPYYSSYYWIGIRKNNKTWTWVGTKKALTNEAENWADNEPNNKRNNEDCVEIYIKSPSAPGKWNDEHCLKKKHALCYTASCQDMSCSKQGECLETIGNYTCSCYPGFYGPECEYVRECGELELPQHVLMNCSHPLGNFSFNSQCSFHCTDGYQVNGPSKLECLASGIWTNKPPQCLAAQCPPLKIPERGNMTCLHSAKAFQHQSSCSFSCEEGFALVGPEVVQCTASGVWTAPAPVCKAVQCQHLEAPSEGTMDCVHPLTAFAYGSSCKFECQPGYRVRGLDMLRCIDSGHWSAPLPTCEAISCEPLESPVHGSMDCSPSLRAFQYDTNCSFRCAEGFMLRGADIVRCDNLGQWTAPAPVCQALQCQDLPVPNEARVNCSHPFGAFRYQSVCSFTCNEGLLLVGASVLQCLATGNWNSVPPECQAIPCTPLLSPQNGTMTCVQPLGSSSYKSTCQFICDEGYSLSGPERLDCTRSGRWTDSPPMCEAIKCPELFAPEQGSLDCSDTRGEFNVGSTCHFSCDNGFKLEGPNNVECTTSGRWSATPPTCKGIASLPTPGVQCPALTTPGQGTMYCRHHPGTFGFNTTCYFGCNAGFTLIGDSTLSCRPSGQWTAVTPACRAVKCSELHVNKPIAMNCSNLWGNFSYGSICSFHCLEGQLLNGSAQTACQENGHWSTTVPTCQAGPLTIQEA

B1: PDGF quench sensor 2 (structured_DNA)
DNA 1: AAGGCTACGGCACGTAGAGCATCACCATGATCCTGTGTGGTCTATGTCGTCGTTCG
DNA 2: CGAACGACGACATAGACCACA
Regarding B1, the binding result in data set [1] is reported as “binds”.

Consider GATGTAGGGACAGTCAAATGGAGTGGTTCAACCGCCCATCTTCAACAAT (ssDNA) [scrambled sequence control DNA], for which the binding result in the data set with L-selectin [2] was “no binding”.

For TAGCCAAGGTAACCAGTACAAGGTGCTAAACGTAATGGCTTCGGCTTAC (ssDNA, 3' inverted T) [L-selectin aptamer], in the data set with P-selectin, the binding result is given as “no binding”.

B2: PDGF FRET sensor 5 (structured_DNA)
DNA 1: AAGGCTACGGCACGTAGAGCATCACCATGATCCTGTGTGGTCTGTGTCG
DNA 2: CGACACAGACCACA
For the molecule B2, the binding result in data set [3] was “binds”.

As for CUCAACGAGCCAGGAACAUCGACGUCAGCAAACGCGAG (ssRNA, 2'-F on C and U) [P-selectin aptamer], the binding result with L-selectin [4] is listed as “no binding”.
